Results as given in patent US20200062856A1 (XDCEXPLORER SHANGHAI, published 2020).
Like-named read-outs stand apart in the source and are kept apart here.

T1: human TPBG protein, full-length, on the cell surface (human, UniProt Q13641 32-420)
T1 sequence (looked up): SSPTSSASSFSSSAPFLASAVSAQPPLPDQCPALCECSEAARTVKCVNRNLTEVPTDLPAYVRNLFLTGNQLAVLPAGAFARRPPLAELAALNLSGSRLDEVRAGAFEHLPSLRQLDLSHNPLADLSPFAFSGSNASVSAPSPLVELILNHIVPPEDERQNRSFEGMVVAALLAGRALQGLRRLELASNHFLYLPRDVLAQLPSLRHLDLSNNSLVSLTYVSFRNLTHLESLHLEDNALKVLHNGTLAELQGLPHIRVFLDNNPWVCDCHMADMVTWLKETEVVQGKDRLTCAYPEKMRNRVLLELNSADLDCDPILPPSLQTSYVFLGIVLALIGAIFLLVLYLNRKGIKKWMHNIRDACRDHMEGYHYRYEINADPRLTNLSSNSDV

T2: human TPBG antigen immobilized on a CM5 chip (human, UniProt Q13641 32-355, limits assumed)
T2 sequence (looked up): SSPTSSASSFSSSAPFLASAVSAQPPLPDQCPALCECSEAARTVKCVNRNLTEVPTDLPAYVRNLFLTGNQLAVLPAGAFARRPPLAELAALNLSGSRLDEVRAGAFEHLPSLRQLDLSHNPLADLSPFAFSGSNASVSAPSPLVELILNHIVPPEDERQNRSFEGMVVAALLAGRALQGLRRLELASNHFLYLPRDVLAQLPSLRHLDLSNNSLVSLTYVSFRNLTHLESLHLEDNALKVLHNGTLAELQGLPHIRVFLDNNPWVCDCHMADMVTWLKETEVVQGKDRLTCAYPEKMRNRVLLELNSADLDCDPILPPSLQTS

T3: human TPBG-hFc protein (human, UniProt Q13641 32-355)
T3 construct: range 32-355; Expressed in HEK293 cells, purified on protein A; also called immunogen A; hFc tagged TPBG protein; not shown: human IgG Fc fragment of the pCpC vector
T3 sequence (looked up): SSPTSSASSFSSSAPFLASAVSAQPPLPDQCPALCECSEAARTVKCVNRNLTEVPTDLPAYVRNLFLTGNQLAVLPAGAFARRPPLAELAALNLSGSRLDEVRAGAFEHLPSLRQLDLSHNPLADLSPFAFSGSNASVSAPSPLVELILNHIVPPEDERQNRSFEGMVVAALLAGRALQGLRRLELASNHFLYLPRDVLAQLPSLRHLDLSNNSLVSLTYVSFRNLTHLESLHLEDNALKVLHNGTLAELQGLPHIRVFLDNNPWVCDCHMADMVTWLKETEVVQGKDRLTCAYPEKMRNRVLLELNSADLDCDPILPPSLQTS


How the values were obtained:
[1] = molecular target: T1, human TPBG protein, full-length, on the …; test: cell-based or functional assay
[2] = molecular target: T1, human TPBG protein, full-length, on the …; test: cell-based or functional assay; remark: listed apart in the source
[3] = molecular target: T2, human TPBG antigen immobilized on a CM5 …; test: SPR (Biacore), human TPBG antigen immobilized on CM5 chip
Experimental: To assess the binding specificity and affinity of the humanized anti-TPBG antibody, Biacore analysis was performed using human TPBG antigen immobilized on a CM5 chip. Biacore technique utilizes the change in the refractive index of surface layer after antibody binding to the TPBG antigen immobilized on the surface layer. The binding was determined by surface plasmon resonance (SPR) through detecting the laser refracted from the surface. Non-specific and specific interactions were distinguished by analysis of signal kinetics binding rate and dissociation rate. Chimeric antibodies 12B12 and 28D4 were used as controls.

human TPBG-hFc protein = molecular target: T3, human TPBG-hFc protein; test: ELISA, coated human TPBG-hFc
Experimental: The purified human TPBG-hFc obtained from step (1) diluting with PBS to a final concentration of 1.0 μg/mL was aliquoted into a 96-well ELISA plate at 100 μL per well, and sealed with a parafilm and incubated at 4° C. overnight. The plate was washed twice with plate washing buffer (PBS containing 0.01% (v/v) Tween 20), and blocked with blocking buffer (PBS containing 0.01% (v/v) Tween 20 and 1% (w/w) BSA) at room temperature for 2 h. The blocking buffer was discarded, and […] per well of the purified antibody TPBG was added. After incubating at 37° C. for 2 h, the plate was washed for three times with plate washing buffer (PBS containing 0.01% (v/v) Tween 20). HRP (horseradish peroxidase)-labeled secondary antibody (purchased from Sigma) was added and incubated at 37° C. for 2 h, and the plate was washed for three times using plate washing buffer (PBS containing 0.01% (v/v) Tween 20). 100 μL of TMB substrate was aliquoted into each well, incubated at room temperature for 30 min, and 100 μL of stop buffer (1.0 N HCl) per well was subsequently added. A_{450 nm} values were read using the ELISA plate reader (SpectraMax 384plus purchased from Molecular Device), and the results were shown in Table 5. […] In Table 5 the IgG control herein is a mice IgG control, the data in the Table are OD_{450 nm} values, and Blank represents the OD_{450 nm} value of PBS buffer in the plate.
The purified humanized TPBG antibody obtained from Embodiment 1 was reacted with human TPBG-hFc, for the method, see (5) Identification of lead antibody in Embodiment 1. The EC50 in Table 11 and Table 12 are calculated according to the OD450 nm value of the h12B12 variants and the h28D4 variants, respectively. […] FIGS. 7A and 7B are the binding reactions of purified humanized h12B12 variants to human TBPG-hFc protein, and FIGS. 8A and 8B are the binding reactions of the purified humanized h28D4 variants to human TBPG-hFc protein.

Row | Binder | IC50 of cell killing, NCI-H1568 cells (CellTiter-Glo, 5 days) [2] [nM] | Kd [3] [nM] | koff [3] [s⁻¹] | kon [3] [M⁻¹ s⁻¹] | EC50 (human TPBG-hFc protein) [nM] | further results
1 | Humanized Antibody 12B12-12-MMAE (antibody, V domains shown, MC-VC-PAB-MMAE on cysteines reduced with TCEP (sites not given), DAR about 3.0-5.0 per antibody) VH: EVQLVESGGGLVQPGGSLRLSCAASGFTFSNFGMHWVRQAPGKGLEWVSYISSGSTSFYYADTVKGRFTISRDNAKNSLYLQMNSLRDEDTAVYYCARTNSLLRGFFDAWGQGTTVTVSS VL: DIVLTQTPLSLSVTPGQPASISCRASQSVSSSSYTYLHWYLQKPGQPPQLLIKSASNLESGVPDRFSGSGSGTDFTLKISRVEAEDVGVYYCQHSWEIPLTFGQGTKLEIK |  |  |  |  |  | IC50 of cell killing, MDA-MB-468 cells (CellTiter-Glo, 5 days) [1]: 0.27 nM; IC50 of cell killing, NCI-H1568 cells (CellTiter-Glo, 5 days) [1]: 0.43 nM; IC50 of cell killing, NCI-H1975 cells (CellTiter-Glo, 5 days) [1]: 1.2 nM
2 | Humanized Antibody 12B12-12-DM1 (antibody, V domains shown, SMCC-DM1 (sites not given), DAR about 3.0-5.0 per antibody) VH: EVQLVESGGGLVQPGGSLRLSCAASGFTFSNFGMHWVRQAPGKGLEWVSYISSGSTSFYYADTVKGRFTISRDNAKNSLYLQMNSLRDEDTAVYYCARTNSLLRGFFDAWGQGTTVTVSS VL: DIVLTQTPLSLSVTPGQPASISCRASQSVSSSSYTYLHWYLQKPGQPPQLLIKSASNLESGVPDRFSGSGSGTDFTLKISRVEAEDVGVYYCQHSWEIPLTFGQGTKLEIK |  |  |  |  |  | IC50 of cell killing, MDA-MB-468 cells (CellTiter-Glo, 5 days) [1]: 0.44 nM; IC50 of cell killing, NCI-H1568 cells (CellTiter-Glo, 5 days) [1]: 0.38 nM; IC50 of cell killing, NCI-H1975 cells (CellTiter-Glo, 5 days) [1]: 5.93 nM
3 | Chimeric Antibody 28D4-MMAF (antibody, V domains shown, MC-MMAF on cysteines reduced with TCEP (sites not given), DAR 3.0-5.0 per antibody) VH: DVQLVESGGGLVRPGGSLKLSCAASGFTFSNYVMSWARQSPEKRLEWVAEISTGGSHTYYSDTVTGRFTISRDNAKKALYLEMSSLRSEDTAIYYCIMFYYGSSYSMDYWGQGTSVTVSS VL: DIQMTQSTSSLSASLGDRITISCRASQDIRNYLNWYQQKPDGTVKLLIYHTSRLHSGVPSRFSGSGSGTDYSLTISNLEQEDIATYFCQQGDTLPLTFGAGTRLELK | 0.091 |  |  |  |  | 
4 | Humanized Antibody 28D4-3-MMAF (antibody, V domains shown, MC-MMAF on cysteines reduced with TCEP (sites not given), DAR 3.0-5.0 per antibody) VH: EVQLVESGGGLVKPGGSLRLSCAASGFTFSNYVMSWIRQAPGKGLEWVAEISTGGSHTYYSDTVTGRFTISRDNAKKSLYLQMNSLRAEDTAVYYCIMFYYGSSYSMDYWGQGTTVTVSS VL: DIQMTQSPSSLSASVGDRVTITCRASQDIRNYLNWYQQKPGKAPKLLIYHTSRLHSGVPSRFSGSGSGTDFTFTISSLQPEDIATYYCQQGDTLPLTFGQGTRLEIK | 0.061 |  |  |  |  | 
5 | Humanized Antibody 28D4-4-MMAF (antibody, V domains shown, MC-MMAF on cysteines reduced with TCEP (sites not given), DAR 3.0-5.0 per antibody) VH: EVQLVESGGGLVKPGGSLRLSCAASGFTFSNYVMSWARQAPGKRLEWVAEISTGGSHTYYSDTVTGRFTISRDNAKKSLYLQMNSLRAEDTAVYYCIMFYYGSSYSMDYWGQGTTVTVSS VL: DIQMTQSPSSLSASVGDRVTITCRASQDIRNYLNWYQQKPGKAPKLLIYHTSRLHSGVPSRFSGSGSGTDFTFTISSLQPEDIATYYCQQGDTLPLTFGQGTRLEIK | 0.074 |  |  |  |  | 
6 | Humanized Antibody 28D4-7-MMAF (antibody, V domains shown, MC-MMAF on cysteines reduced with TCEP (sites not given), DAR 3.0-5.0 per antibody) VH: EVQLVESGGGLVKPGGSLRLSCAASGFTFSNYVMSWIRQAPGKGLEWVAEISTGGSHTYYSDTVTGRFTISRDNAKKSLYLQMNSLRAEDTAVYYCIMFYYGSSYSMDYWGQGTTVTVSS VL: DIQMTQSPSSLSASVGDRVTITCRASQDIRNYLNWYQQKPGKAPKLLIYHTSRLHSGVPSRFSGSGSGTDYTFTISSLQPEDIATYYCQQGDTLPLTFGQGTRLEIK | 0.066 |  |  |  |  | 
7 | Humanized antibody 12B12-16 (antibody, V domains shown, also called h12B12-16) VH: EVQLVESGGGVVQPGRSLRLSCAASGFTFSNFGMHWVRQAPGKGLEWVAYISSGSTSFYYADTVKGRFTISRDNSKNTLYLQMNSLRAEDTAVYYCSRTNSLLRGFFDAWGQGTTVTVSS VL: DIVLTQTPLSLSVTPGQPASISCRASQSVSSSSYTYLHWYLQKPGQPPQLLIKSASNLESGVPDRFSGSGSGTDFTLKISRVEAEDVGVYYCQHSWEIPLTFGQGTKLEIK |  | 0.0229 | 3.65e-05 | 1.59e+06 | 0.2 | 
8 | Humanized antibody 28D4-8 (antibody, V domains shown, also called h28D4-8) VH: EVQLVESGGGLVKPGGSLRLSCAASGFTFSNYVMSWARQAPGKRLEWVAEISTGGSHTYYSDTVTGRFTISRDNAKKSLYLQMNSLRAEDTAVYYCIMFYYGSSYSMDYWGQGTTVTVSS VL: DIQMTQSPSSLSASVGDRVTITCRASQDIRNYLNWYQQKPGKAPKLLIYHTSRLHSGVPSRFSGSGSGTDYTFTISSLQPEDIATYYCQQGDTLPLTFGQGTRLEIK |  | 0.0296 | 3.01e-05 | 1.02e+06 | 0.162 | 
9 | Humanized antibody 28D4-12 (antibody, V domains shown, also called h28D4-12) VH: EVQLVESGGGLVKPGGSLRLSCAASGFTFSNYVMSWARQAPGKRLEWVAEISTGGSHTYYSDTVTGRFTISRDNAKKSLYLQMNSLRAEDTAVYYCIMFYYGSSYSMDYWGQGTTVTVSS VL: DIQMTQSPSSLSASVGDRVTITCRASQDIRNYLNWYQQKPGKTVKLLIYHTSRLHSGVPSRFSGSGSGTDYTFTISSLQPEDIATYFCQQGDTLPLTFGQGTRLEIK |  | 0.0381 | 3.94e-05 | 1.03e+06 | 0.167 | 
10 | Humanized antibody 12B12-4 (antibody, V domains shown, also called h12B12-4) VH: EVQLVESGGGLVQPGGSLRLSCAASGFTFSNFGMHWVRQAPGKGLEWVSYISSGSTSFYYADTVKGRFTISRDNAKNSLYLQMNSLRDEDTAVYYCARTNSLLRGFFDAWGQGTTVTVSS VL: DIVLTQSPDSLAVSLGERATINCRASQSVSSSSYTYLHWYQQKPGQPPKLLIKSASNLESGVPDRFSGSGSGTDFTLTISSLQAEDVAVYYCQHSWEIPLTFGQGTKLEIK |  | 0.022 | 3.46e-05 | 1.58e+06 | 0.227 | 
11 | Humanized antibody 12B12-5 (antibody, V domains shown, also called h12B12-5) VH: EVQLVESGGGLVQPGGSLRLSCAASGFTFSNFGMHWVRQAPGKGLEWVSYISSGSTSFYYADTVKGRFTISRDNAKNSLYLQMNSLRDEDTAVYYCSRTNSLLRGFFDAWGQGTTVTVSS VL: DIVLTQSPDSLAVSLGERATINCRASQSVSSSSYTYLHWYQQKPGQPPKLLIKSASNLESGVPDRFSGSGSGTDFTLTISSLQAEDVAVYYCQHSWEIPLTFGQGTKLEIK |  | 0.0179 | 2.1e-05 | 1.17e+06 | 0.253 | 
12 | Humanized antibody 28D4-11 (antibody, V domains shown, also called h28D4-11) VH: EVQLVESGGGLVKPGGSLRLSCAASGFTFSNYVMSWIRQAPGKGLEWVAEISTGGSHTYYSDTVTGRFTISRDNAKKSLYLQMNSLRAEDTAVYYCIMFYYGSSYSMDYWGQGTTVTVSS VL: DIQMTQSPSSLSASVGDRVTITCRASQDIRNYLNWYQQKPGKTVKLLIYHTSRLHSGVPSRFSGSGSGTDYTFTISSLQPEDIATYFCQQGDTLPLTFGQGTRLEIK |  |  |  |  | 0.191 | 
